From article PMC5059767

How the values were obtained:
[1] = target: PKAC-YFP (mouse PKAC-Venus-YFP), in MDCK cells (UniProt P05132); experiment: FLIM-FRET (Venus-YFP donor fluorescence lifetime) in MDCK cells; conditions: n≥4 each; mean±s.d.; donor alone (PKAC-YFP) est. 3.0 ns; parent: est. 2.4; read off a plot
[2] = target: endogenous PKAC (HEK293T) (human (endogenous in HEK293T)) (UniProt P17612)
[3] = target: mCherry-ARHGAP36; experiment: FLIM-FRET (Venus-YFP donor fluorescence lifetime) in MDCK cells; conditions: n≥4 each; mean±s.d.; donor alone (PKAC-YFP) est. 3.0 ns; parent: est. 2.4; read off a plot

ARHGAP36-N2 (118–194), sequence (Q6ZRI8 149-225): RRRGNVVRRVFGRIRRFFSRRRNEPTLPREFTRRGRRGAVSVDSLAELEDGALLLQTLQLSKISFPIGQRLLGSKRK

Substance	reduction in mean FRET emission ratio of the PKA biosensor AKAR4-NES in HEK293T cells stimulated with Forskolin and IBMX [2]	also measured
mCherry-ARHGAP36 R153D; R154D; V157D		response [1]: 3 ns
ARHGAP36-N2 (118–194) (from UniProt Q6ZRI8-2 118-194) (domain or fragment)	25.1%	
PKAC-YFP (mouse PKAC-Venus-YFP), in MDCK cells (from UniProt P05132) E127A; E170A; E230A		response [3]: 3 ns
mCherry-ARHGAP36 (natural protein)	25.7%	
